Measured values from US11780903B2, “Peptide suppressing binding of CTLA4 to B7 proteins, and use thereof” (TOAGOSEI CO., LTD., priority 2020, dated 2023).
No end group written: not given here.

Columns and labels:
[1] = target: T1, binding of CTLA4 to B7-1 (Homo sapiens, UniProt P16410); experiment: Test for evaluating binding inhibitory properties between CTLA4 and B7-1 (BPS #72009 inhibitor screening assay kit, chemiluminescence); details: peptide concentration 5 μM and/or 10 μM as in Table 2; plate-coated CTLA4, biotin-labeled B7-1; n=2 wells; versus no peptide added
T1 construct: purchased BPS Bioscience BPS #72009
T1 sequence (P16410 36-161 limits assumed): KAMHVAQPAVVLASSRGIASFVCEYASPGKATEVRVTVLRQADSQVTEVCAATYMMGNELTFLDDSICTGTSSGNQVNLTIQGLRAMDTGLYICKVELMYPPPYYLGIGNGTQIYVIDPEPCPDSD
Experimental: The binding inhibitory properties between CTLA4 and B7-1 were evaluated for the 6 kinds of sample peptides synthesized in the above-described Test Example 1.
In this test, Test Examples 2-1 to 2-9 were set according to the kinds of sample peptide used and the peptide concentration as shown in Table 2 below. In addition, a peptide-free group was set as Test Example 2-10. The tests of the above-described 10 categories in total were carried out as follows. The numbers “1 to 10” shown in the “No.” column of Table 2 represent “Test Examples 2-1 to 2-10” in Test Example 2. In addition, the number (n) of test wells in each of the above-described examples was set to 2.
In Test Example 2-1, the following kit currently available on the market was used. CTLA4 B7-1 (Biotinylated) inhibitor screening assay kit (manufactured by BPS Bioscience, BPS #72009)
The operation for this test example was based on “ASSAY PROTOCOL” described in the data sheet of the above-described kit. A brief procedure is shown below.
First, each well of a 96-well plate was coated with CTLA4. Specifically, a CTLA4 solution (2 μg/mL) was dispensed into each well of the 96-well plate, and the plate was incubated overnight at 4° C.
Subsequently, the CTLA4 solution was removed, and each well was washed.
Subsequently, blocking was performed. Specifically, a blocking buffer contained in the kit was dispensed into each well, and the plate was incubated for 1 hour at room temperature.
Subsequently, a solution of the Sample 1 was dispensed into each well, and the plate was incubated for 1 hour at room temperature.
Subsequently, a biotin-labeled B7-1 solution (1.25 ng/mL) was dispensed into each well of the 96-well plate, and the plate was incubated for 2 hours at room temperature.
After the above-described incubation, the peptide solution was removed, and each well was washed. […]
Subsequently, the blocking buffer was removed, a chemiluminescent reagent contained in the above-described kit was dispensed into each well, and the chemiluminescence intensity in each well was measured with a luminometer. […]

[2] = target: T2, binding of CTLA4 to B7-2 (Homo sapiens, UniProt P16410); experiment: Test for evaluating binding inhibitory properties between CTLA4 and B7-2 (BPS #79658 inhibitor screening assay kit, chemiluminescence); details: peptide concentration 5 μM and/or 10 μM as in Table 2; plate-coated CTLA4, biotin-labeled B7-2; n=2 wells; versus no peptide added
T2 construct: purchased BPS Bioscience BPS #79658
T2 sequence (P16410 36-161 limits assumed): T1 sequence (P16410 36-161 limits assumed)
Experimental: The binding inhibitory properties between CTLA4 and B7-2 were evaluated for the 6 kinds of sample peptides synthesized in the above-described Test Example 1.
In this test, Test Examples 3-1 to 3-9 were set according to the kind of sample peptide used and the peptide concentration as shown in Table 2 mentioned above. In addition, a peptide-free group was set as Test Example 3-10. The tests of the above-described 10 categories in total were carried out as follows. The numbers “1 to 10” shown in the “No.” column of Table 2 represent “Test Examples 3-1 to 3-10” in Test Example 3. In addition, the number (n) of test wells in each of the above-described examples was set to 2.
In Test Example 3-1, the following kit currently available on the market was used. CTLA4 B7-2 (Biotinylated) inhibitor screening assay kit (BPS #79658)
The operation for this test example was based on “ASSAY PROTOCOL” described in the data sheet of the above-described kit.
Test Example 3-1 was performed using the same materials and processes as those of Test Example 2-1 except that the above-described kit was used.

suppression of binding of CTLA4 to B7-2 (chemiluminescence intensity, FIG. 2) [2]	Sequence	suppression of binding of CTLA4 to B7-1 (chemiluminescence intensity, FIG. 1) [1]
not suppressed	KKRTLRKNDR KKR (KKRTLRKNDRKKR-NH2) [Sample 6]	not suppressed
	MQIPQAPWPVVWAVLQLGWR (MQIPQAPWPVVWAVLQLGWR-NH2) [Sample 4]	no action of suppressing the binding of CTLA4 to B7-1 was observed
	MQIPQAPWPVVWAVLQLGWRMQIPQAPWRPVVWAVLQLGW [Sample 5]	no action of suppressing the binding of CTLA4 to B7-1 was observed
